Results published in article PMC8525972.

Target: fluorescein-labeled Fc-III (Fluorescein-Ahx-…-NH2)
Assay: other fluorescence titration

limit of detection by fluorescence intensity	fold increase of fluorescence intensity at 2.5 g/L	Substance
0.1 g/L		murine IgG1 (antibody)
0.0001 g/L	1.8 fold	human IgG1 adalimumab biosimilar Exemptia (antibody)
